Data as given in patent EP1177203B1.
pKd: −log10 of the molar value.

Experiments:
[1] = biological target: Mouse laminin (isolated from the EHS-sarcoma, Life Technologies) (mouse) (UniProt P19137); assay: adherence assay; V583 cells (46°C) on LN-coated wells; no IgG
[2] = biological target: Bovine serum albumin (bovine) (UniProt P02769); assay: adherence assay; V583 cells (46°C) on BSA-coated wells (negative control); no IgG
[3] = biological target: Collagen type I (Sigma), immobilized; assay: adherence assay; V583 cells (46°C) on CI-coated wells; no IgG
Collagen type IV (Sigma) [4] = assay: adherence assay; V583 cells (46°C) on CIV-coated wells; no IgG
[5] = biological target: Bovine Type I collagen (Collagen Corp.), immobilized on a CM5 sensor chip (bovine) (UniProt P02453); assay: SPR (BIAcore 1000), Scatchard analysis of equilibrium responses, 1-70 µM Ace A over immobilised collagen; three measurements
Sequence of UniProt P02453 (P02453 162-1217, chain 1 of 2): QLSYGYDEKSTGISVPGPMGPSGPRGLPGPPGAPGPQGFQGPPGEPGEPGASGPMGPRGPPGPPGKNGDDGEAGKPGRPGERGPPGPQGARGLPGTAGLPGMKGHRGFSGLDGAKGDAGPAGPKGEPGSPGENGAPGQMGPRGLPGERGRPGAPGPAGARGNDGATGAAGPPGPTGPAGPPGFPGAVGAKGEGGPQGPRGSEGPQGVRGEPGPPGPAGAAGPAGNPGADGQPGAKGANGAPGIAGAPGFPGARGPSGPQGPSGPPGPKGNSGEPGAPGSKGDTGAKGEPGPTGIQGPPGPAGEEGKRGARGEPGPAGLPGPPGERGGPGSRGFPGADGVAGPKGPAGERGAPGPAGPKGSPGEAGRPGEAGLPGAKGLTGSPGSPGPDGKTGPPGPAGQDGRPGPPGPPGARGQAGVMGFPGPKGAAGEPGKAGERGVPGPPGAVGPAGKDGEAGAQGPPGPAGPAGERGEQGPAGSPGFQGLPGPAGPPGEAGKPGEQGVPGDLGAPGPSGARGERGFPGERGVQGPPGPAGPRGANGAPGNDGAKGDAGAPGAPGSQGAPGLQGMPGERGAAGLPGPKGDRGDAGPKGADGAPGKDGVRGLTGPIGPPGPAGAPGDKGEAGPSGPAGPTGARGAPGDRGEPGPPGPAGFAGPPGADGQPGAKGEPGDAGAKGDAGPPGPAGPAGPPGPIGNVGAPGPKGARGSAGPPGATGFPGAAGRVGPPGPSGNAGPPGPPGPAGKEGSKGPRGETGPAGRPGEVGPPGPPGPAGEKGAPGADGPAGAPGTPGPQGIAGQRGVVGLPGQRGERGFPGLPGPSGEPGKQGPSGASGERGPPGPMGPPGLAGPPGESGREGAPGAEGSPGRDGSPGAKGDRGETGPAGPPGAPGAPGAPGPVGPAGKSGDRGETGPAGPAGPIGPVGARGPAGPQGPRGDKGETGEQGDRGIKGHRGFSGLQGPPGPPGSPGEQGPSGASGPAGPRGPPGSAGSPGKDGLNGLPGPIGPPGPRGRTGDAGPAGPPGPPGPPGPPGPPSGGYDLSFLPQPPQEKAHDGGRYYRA
Sequence of UniProt P02453 (P02465 80-1117, chain 2 of 2, further chain): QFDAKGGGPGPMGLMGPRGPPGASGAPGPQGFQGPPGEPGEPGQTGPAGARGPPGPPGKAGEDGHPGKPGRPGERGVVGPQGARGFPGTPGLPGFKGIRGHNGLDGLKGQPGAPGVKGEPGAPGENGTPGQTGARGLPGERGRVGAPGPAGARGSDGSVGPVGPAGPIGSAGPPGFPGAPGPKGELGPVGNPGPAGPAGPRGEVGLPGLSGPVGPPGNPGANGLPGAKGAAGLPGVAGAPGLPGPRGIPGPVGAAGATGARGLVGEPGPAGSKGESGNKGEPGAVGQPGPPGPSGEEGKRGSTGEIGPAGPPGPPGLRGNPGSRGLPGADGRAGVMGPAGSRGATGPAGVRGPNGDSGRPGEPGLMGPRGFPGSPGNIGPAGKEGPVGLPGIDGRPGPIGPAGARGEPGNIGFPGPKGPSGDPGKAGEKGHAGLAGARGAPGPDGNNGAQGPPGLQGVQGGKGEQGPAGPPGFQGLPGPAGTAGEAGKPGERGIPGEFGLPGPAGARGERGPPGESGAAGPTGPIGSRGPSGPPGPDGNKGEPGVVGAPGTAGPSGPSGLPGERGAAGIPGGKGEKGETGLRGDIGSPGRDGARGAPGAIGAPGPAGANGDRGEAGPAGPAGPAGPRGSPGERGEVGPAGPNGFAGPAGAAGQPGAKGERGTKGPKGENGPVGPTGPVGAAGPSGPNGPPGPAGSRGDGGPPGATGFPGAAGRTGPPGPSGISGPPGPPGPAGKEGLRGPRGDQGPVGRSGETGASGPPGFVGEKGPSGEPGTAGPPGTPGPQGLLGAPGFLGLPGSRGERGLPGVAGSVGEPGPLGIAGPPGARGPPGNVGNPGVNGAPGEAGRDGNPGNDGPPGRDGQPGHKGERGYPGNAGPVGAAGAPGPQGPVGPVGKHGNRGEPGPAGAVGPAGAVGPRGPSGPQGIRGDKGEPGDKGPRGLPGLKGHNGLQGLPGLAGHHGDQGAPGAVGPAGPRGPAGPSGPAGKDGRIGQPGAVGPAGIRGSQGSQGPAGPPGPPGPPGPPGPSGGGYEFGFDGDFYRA

Collagen type IV (Sigma) [6] = assay: adherence assay; 37°C-grown MC02152 cells on CIV-coated wells
[7] = biological target: Collagen type I (Sigma), immobilized; assay: adherence assay; 46°C-grown MC02152 cells on CI-coated wells
Collagen type IV (Sigma) [8] = assay: adherence assay; MC02152 cells (46°C) on CIV-coated wells; no IgG
[9] = biological target: Mouse laminin (isolated from the EHS-sarcoma, Life Technologies) (mouse) (UniProt P19137); assay: adherence assay; MC02152 cells (46°C) on LN-coated wells; no IgG
[10] = biological target: Collagen type I (Sigma), immobilized; assay: adherence assay; 37°C-grown MC02152 cells on CI-coated wells
[11] = biological target: Mouse laminin (isolated from the EHS-sarcoma, Life Technologies) (mouse) (UniProt P19137); assay: adherence assay; 46°C-grown MC02152 cells on LN-coated wells
Collagen type IV (Sigma) [12] = assay: adherence assay; 46°C-grown MC02152 cells on CIV-coated wells
[13] = biological target: Bovine serum albumin (bovine) (UniProt P02769); assay: adherence assay; MC02152 cells (46°C) on BSA-coated wells (negative control); no IgG
[14] = biological target: Collagen type I (Sigma), immobilized; assay: adherence assay; MC02152 cells (46°C) on CI-coated wells; no IgG
[15] = biological target: Mouse laminin (isolated from the EHS-sarcoma, Life Technologies) (mouse) (UniProt P19137); assay: adherence assay; 37°C-grown MC02152 cells on LN-coated wells
[16] = biological target: Bovine serum albumin (bovine) (UniProt P02769); assay: adherence assay; OG1RF cells (46°C) on BSA-coated wells (negative control); no IgG
Collagen type IV (Sigma) [17] = assay: adherence assay; OG1RF cells (46°C) on CIV-coated wells; no IgG
[18] = biological target: Collagen type I (Sigma), immobilized; assay: adherence assay; OG1RF cells (46°C) on CI-coated wells; no IgG
[19] = biological target: Bovine serum albumin (bovine) (UniProt P02769); assay: adherence assay; OG1RF cells (46°C) on BSA-coated wells (negative control); no IgG; remark: listed apart in the source
Collagen type IV (Sigma) [20] = assay: adherence assay; OG1RF cells (46°C) on CIV-coated wells; no IgG; remark: listed apart in the source
[21] = biological target: Collagen type I (Sigma), immobilized; assay: adherence assay; OG1RF cells (46°C) on CI-coated wells; no IgG; remark: listed apart in the source
[22] = biological target: Collagen type I (Sigma), immobilized; assay: adherence assay, 35S-labelled 46°C-grown OG1RF cells on CI-coated wells (3.3% is the ace mutant TX5256)
[23] = biological target: Collagen type I (Sigma), immobilized; assay: adherence assay, 46°C-grown cells on CI-coated wells
[24] = biological target: Mouse laminin (isolated from the EHS-sarcoma, Life Technologies) (mouse) (UniProt P19137); assay: adherence assay; OG1RF cells (46°C) on LN-coated wells; no IgG
[25] = biological target: Mouse laminin (isolated from the EHS-sarcoma, Life Technologies) (mouse) (UniProt P19137); assay: adherence assay, 46°C-grown cells on LN-coated wells
[26] = biological target: Mouse laminin (isolated from the EHS-sarcoma, Life Technologies) (mouse) (UniProt P19137); assay: adherence assay; OG1RF cells (46°C) on LN-coated wells; no IgG; remark: listed apart in the source
Collagen type IV (Sigma) [27] = assay: adherence assay, 46°C-grown cells on CIV-coated wells

Sequence of UniProt P02769 (P02769 25-607 limits assumed): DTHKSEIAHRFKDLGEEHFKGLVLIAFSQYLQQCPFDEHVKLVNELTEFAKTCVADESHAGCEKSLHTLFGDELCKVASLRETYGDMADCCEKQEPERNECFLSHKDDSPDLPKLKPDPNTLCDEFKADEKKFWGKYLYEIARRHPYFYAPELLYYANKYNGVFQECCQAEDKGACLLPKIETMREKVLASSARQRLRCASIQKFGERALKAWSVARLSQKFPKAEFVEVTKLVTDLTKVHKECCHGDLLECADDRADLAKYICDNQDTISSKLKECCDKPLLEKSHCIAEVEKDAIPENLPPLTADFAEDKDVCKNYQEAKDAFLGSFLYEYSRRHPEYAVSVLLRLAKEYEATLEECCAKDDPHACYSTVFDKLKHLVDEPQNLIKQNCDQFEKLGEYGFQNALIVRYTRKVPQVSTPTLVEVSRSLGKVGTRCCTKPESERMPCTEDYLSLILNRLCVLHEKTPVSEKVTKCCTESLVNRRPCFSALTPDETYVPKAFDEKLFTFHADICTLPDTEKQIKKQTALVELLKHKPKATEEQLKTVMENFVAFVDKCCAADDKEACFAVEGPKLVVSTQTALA

**Q.** “Ace protein of E. faecalis strain V583 (native; on 46°C-grown cells or in mutanolysin extract)” was tested. Which % of cells bound [1] did it give?
**A.** The % of cells bound was 29.4%.

**Q.** And the % of cells bound [2]?
**A.** Its % of cells bound is 0.7%.

**Q.** What about the % of cells bound [3] of the same substance?
**A.** The % of cells bound was 29.2%.

**Q.** And the % of cells bound (Collagen type IV (Sigma) [4])?
**A.** The % of cells bound was 38.1%.

**Q.** With “Recombinant E. faecalis EF1 Ace A domain (N-terminal His6-tag fusion protein)” as the substance, how does the pKd [5] read?
**A.** The pKd was 4.32.

**Q.** Which results are given for “Ace protein of E. faecalis strain MC02152 (native; on cells or in mutanolysin extract)”?
**A.** % of cells bound (Collagen type IV (Sigma) [6]): 8.9%; % of cells bound [7]: 29%; % of cells bound (Collagen type IV (Sigma) [8]): 27.7%; % of cells bound [9]: 26.7%; % of cells bound [10]: 6%; % of cells bound [11]: 41%; % of cells bound (Collagen type IV (Sigma) [12]): 38%; % of cells bound [13]: 0.6%; % of cells bound [14]: 26%; % of cells bound [15]: 7.1%

**Q.** “Ace protein of E. faecalis strain OG1RF (native; on 46°C-grown cells or in mutanolysin-PMSF extracts)” was tested. Which % of cells bound [16] did it give?
**A.** The % of cells bound was 0.9%.

**Q.** What about the % of cells bound (Collagen type IV (Sigma) [17]) of the same substance?
**A.** The % of cells bound was 29.6%.

**Q.** And the % of cells bound [18]?
**A.** Its % of cells bound is 24.6%.

**Q.** And the % of cells bound [19]?
**A.** The % of cells bound was 0.6%.

**Q.** And the % of cells bound (Collagen type IV (Sigma) [20])?
**A.** Its % of cells bound is 27.7%.

**Q.** And the % of cells bound [21]?
**A.** Its % of cells bound is 25.6%.

**Q.** What about the % of cells bound [22] of the same substance?
**A.** Its % of cells bound is 21.1%.

**Q.** And the fold decrease in percentage of binding, ace mutant TX5256 against OG1RF [23]?
**A.** The fold decrease in percentage of binding, ace mutant TX5256 against OG1RF was 6.5 fold.

**Q.** And the % of cells bound [24]?
**A.** Its % of cells bound is 31.9%.

**Q.** What about the fold decrease in adherence, ace mutant TX5256 against OG1RF [25] of the same substance?
**A.** The fold decrease in adherence, ace mutant TX5256 against OG1RF was 32.9 fold.

**Q.** And the % of cells bound [26]?
**A.** The % of cells bound was 32%.

**Q.** And the fold decrease in adherence, ace mutant TX5256 against OG1RF (Collagen type IV (Sigma) [27])?
**A.** The fold decrease in adherence, ace mutant TX5256 against OG1RF was 27.4 fold.
